The target of assay [1] is T1, Δ2,3-452H soluble BACE (S174I, N223A, histidine tag), baculovirus/Sf9 (human, UniProt P56817 22-452).
T1 construct: not shown: histidine tag
Nature of the assay: affinity chromatography on the immobilised inhibitor peptide.

The target of assay [2] is T2, Δ2,3-452H,NINL soluble BACE (S174I, N223A, R42L43P44R45 changed to NINL, histidine tag), baculovirus/Sf9 (human, UniProt P56817 46-452).
T2 construct: not shown: histidine tag
The description is as above.

Non-standard residues stand in square brackets, D forms with d. No end group written: not given here. Sta = CC(C)C[C@H](N)[C@@H](O)CC(=O)O

T2 sequence (P56817 other isoform, or with tags, fused parts or gaps S174I N223A S174I N223A): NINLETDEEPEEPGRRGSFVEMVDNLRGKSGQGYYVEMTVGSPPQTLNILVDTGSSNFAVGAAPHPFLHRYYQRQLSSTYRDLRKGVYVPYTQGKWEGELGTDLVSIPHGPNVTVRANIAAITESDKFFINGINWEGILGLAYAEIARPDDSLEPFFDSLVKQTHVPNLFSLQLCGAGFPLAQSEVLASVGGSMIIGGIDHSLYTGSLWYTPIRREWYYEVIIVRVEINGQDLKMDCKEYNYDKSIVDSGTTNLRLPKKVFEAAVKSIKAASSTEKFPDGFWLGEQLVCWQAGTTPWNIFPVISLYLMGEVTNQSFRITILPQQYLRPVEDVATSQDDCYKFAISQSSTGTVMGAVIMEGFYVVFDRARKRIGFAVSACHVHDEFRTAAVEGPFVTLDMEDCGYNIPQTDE
T1 sequence (P56817 22-452 S174I/N223A): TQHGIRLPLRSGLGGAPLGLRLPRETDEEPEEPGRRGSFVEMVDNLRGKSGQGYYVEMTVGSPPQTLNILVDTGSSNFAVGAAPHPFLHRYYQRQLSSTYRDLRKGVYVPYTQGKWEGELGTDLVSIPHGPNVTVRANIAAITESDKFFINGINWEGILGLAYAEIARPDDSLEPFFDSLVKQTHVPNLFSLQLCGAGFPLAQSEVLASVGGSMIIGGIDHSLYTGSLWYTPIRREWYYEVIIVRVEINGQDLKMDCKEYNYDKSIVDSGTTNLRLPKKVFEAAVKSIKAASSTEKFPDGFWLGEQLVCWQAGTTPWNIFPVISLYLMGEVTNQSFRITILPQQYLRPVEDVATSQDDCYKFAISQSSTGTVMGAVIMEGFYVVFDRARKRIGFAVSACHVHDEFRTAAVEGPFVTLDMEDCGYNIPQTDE

B1: P10-P4′staD→V inhibitor peptide, KTEEISEVN[sta]VAEF (peptide)
peptide: KTEEISEVN[Sta]VAEF
notes: also called P10-P4′staV; P10-4′staD→V
Take B1: the binding result in assay [1] and in assay [2] was “binds” in each case.
